Source: patent US20220411483A1 (Chugai, published 2022)

T1: human FcγRIIa R type extracellular domain with C-terminal His tag (human, UniProt P12318 34-217)
T1 construct: extracellular domain; also called FcgRIIaR
T1 sequence (looked up): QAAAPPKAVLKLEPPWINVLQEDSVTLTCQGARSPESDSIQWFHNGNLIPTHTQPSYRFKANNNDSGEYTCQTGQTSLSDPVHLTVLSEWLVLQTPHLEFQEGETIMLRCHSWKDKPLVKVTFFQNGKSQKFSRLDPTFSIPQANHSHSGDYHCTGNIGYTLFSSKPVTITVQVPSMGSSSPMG

T2: human FcγRIIa H type extracellular domain with C-terminal His tag (human, UniProt P12318 34-217)
T2 construct: extracellular domain; also called FcgRIIaH
T2 sequence (looked up): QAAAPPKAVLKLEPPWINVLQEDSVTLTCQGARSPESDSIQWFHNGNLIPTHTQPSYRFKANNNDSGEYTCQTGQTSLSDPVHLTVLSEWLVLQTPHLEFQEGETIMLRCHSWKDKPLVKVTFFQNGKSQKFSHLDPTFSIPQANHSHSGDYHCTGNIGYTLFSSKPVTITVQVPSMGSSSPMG

T3: human FcγRIIb extracellular domain with C-terminal His tag (human, UniProt P31994 43-217)
T3 construct: extracellular domain; also called FcgRIIb
T3 sequence (looked up): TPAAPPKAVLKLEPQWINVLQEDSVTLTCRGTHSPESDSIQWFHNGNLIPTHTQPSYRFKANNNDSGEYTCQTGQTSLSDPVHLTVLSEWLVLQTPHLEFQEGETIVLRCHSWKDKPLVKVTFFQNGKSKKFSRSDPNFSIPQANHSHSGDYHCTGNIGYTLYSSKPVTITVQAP


What was measured:
[1] = biological target: T4, human FcγRIa extracellular domain with C-terminal His tag (human, UniProt P12314 16-292); experiment: SPR, KD of IL6R-G1d/IL6R-L divided by KD of variant
T4 construct: Whole entry named; also called FcgRIa

[2] = biological target: T1, human FcγRIIa R type extracellular …; experiment: as above
[3] = biological target: T2, human FcγRIIa H type extracellular …; experiment: as above
[4] = biological target: T3, human FcγRIIb extracellular domain with …; experiment: as above
[5] = biological target: T5, human FcγRIIIa V type extracellular domain with C-terminal His tag (human, UniProt P08637 17-208); experiment: as above
T5 construct: extracellular domain; also called FcgRIIIaV

[6] = biological target: T4, human FcγRIa extracellular domain with …; experiment: SPR, antibody captured, FcgR analyte
[7] = biological target: T1, human FcγRIIa R type extracellular …; experiment: SPR, antibody captured, FcgR analyte
[8] = biological target: T3, human FcγRIIb extracellular domain with …; experiment: SPR, antibody captured, FcgR analyte

T5 sequence (P08637 17-208 F176V): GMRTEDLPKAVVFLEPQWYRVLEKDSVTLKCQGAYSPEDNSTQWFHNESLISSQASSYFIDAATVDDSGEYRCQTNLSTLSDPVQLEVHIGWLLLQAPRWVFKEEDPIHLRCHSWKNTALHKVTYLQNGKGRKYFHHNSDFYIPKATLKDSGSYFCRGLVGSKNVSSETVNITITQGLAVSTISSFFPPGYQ
T4 sequence (P12314 16-292): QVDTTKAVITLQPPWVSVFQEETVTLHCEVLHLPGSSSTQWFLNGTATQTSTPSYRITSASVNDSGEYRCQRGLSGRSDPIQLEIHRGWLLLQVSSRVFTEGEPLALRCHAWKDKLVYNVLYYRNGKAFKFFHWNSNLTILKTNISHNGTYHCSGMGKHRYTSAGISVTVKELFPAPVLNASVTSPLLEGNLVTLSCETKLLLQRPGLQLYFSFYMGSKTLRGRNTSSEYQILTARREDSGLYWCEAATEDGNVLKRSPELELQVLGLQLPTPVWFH

Relative FcgRIa-binding Activity [1] | Relative FcgRIIaR-binding Activity [2] | Relative FcgRIIaH-binding Activity [3] | Relative FcgRIIb-binding Activity [4] | Relative FcgRIIIaV-binding Activity [5] | Kd [6] | Kd [7] | Kd [8] | Binder
0.086 | 0.46 | 0.019 | 11.7 | 0.007 | 3.7 nM | 2400 nM | 180 nM | IL6R-P556/IL6R-L (antibody, human IgG1, kappa) heavy: QVQLQESGPGLVKPSETLSLTCAVSGHSISHDHAWSWVRQPPGEGLEWIGFISYSGITNYNPSLQGRVTISRDNSKNTLYLQMNSLRAEDTAVYYCARSLARTTAMDYWGEGTLVTVSSASTKGPSVFPLAPSSKSTSGGTAALGCLVKDYFPEPVTVSWNSGALTSGVHTFPAVLQSSGLYSLSSVVTVPSSSLGTQTYICNVNHKPSNTKVDKKVEPKSCDKTHTCPPCPAPDLLGDDSVFLFPPKPKDTLMISRTPEVTCVVVDVSDEDGEVKFNWYVDGVEVHNAKTKPREEQYNSTYRVVSVLTVLHQDWLNGKEYKCKVSNKALPAPIEKTISKAKGQPREPQVYTLPPSRDELTKNQVSLTCLVKGFYPSDIAVEWESNGQPENNYKTTPPVLDSDGSFFLYSKLTVDKSRWQQGNVFSCSVMHEALHNHYTQKSLSLSP light: not shown
0.076 | 0.55 | 0.022 | 16.2 | 0.007 | 4.2 nM | 2000 nM | 130 nM | IL6R-P562/IL6R-L (antibody, human IgG1, kappa) heavy: QVQLQESGPGLVKPSETLSLTCAVSGHSISHDHAWSWVRQPPGEGLEWIGFISYSGITNYNPSLQGRVTISRDNSKNTLYLQMNSLRAEDTAVYYCARSLARTTAMDYWGEGTLVTVSSASTKGPSVFPLAPSSKSTSGGTAALGCLVKDYFPEPVTVSWNSGALTSGVHTFPAVLQSSGLYSLSSVVTVPSSSLGTQTYICNVNHKPSNTKVDKKVEPKSCDKTHTCPPCPAPDLLGDDSVFLFPPKPKDTLMISRTPEVTCVVVDVSEEDGEVKFNWYVDGVEVHNAKTKPREEQYNSTYRVVSVLTVLHQDWLNGKEYKCKVSNKALPAPIEKTISKAKGQPREPQVYTLPPSRDELTKNQVSLTCLVKGFYPSDIAVEWESNGQPENNYKTTPPVLDSDGSFFLYSKLTVDKSRWQQGNVFSCSVMHEALHNHYTQKSLSLSP light: not shown
0.035 | 0.46 | 0.021 | 15 | 0.009 | 9.1 nM | 2400 nM | 140 nM | IL6R-P559/IL6R-L (antibody, human IgG1, kappa) heavy: QVQLQESGPGLVKPSETLSLTCAVSGHSISHDHAWSWVRQPPGEGLEWIGFISYSGITNYNPSLQGRVTISRDNSKNTLYLQMNSLRAEDTAVYYCARSLARTTAMDYWGEGTLVTVSSASTKGPSVFPLAPSSKSTSGGTAALGCLVKDYFPEPVTVSWNSGALTSGVHTFPAVLQSSGLYSLSSVVTVPSSSLGTQTYICNVNHKPSNTKVDKKVEPKSCDKTHTCPPCPAPELLGDDSVFLFPPKPKDTLMISRTPEVTCVVVDVSEEDGEVKFNWYVDGVEVHNAKTKPREEQYNSTYRVVSVLTVLHQDWLNGKEYKCKVSNKALPAPIEKTISKAKGQPREPQVYTLPPSRDELTKNQVSLTCLVKGFYPSDIAVEWESNGQPENNYKTTPPVLDSDGSFFLYSKLTVDKSRWQQGNVFSCSVMHEALHNHYTQKSLSLSP light: not shown
0.229 | 0.69 | 0.034 | 55.3 | 0.011 | 1.4 nM | 1600 nM | 38 nM | IL6R-P588/IL6R-L (antibody, human IgG1, kappa) heavy: QVQLQESGPGLVKPSETLSLTCAVSGHSISHDHAWSWVRQPPGEGLEWIGFISYSGITNYNPSLQGRVTISRDNSKNTLYLQMNSLRAEDTAVYYCARSLARTTAMDYWGEGTLVTVSSASTKGPSVFPLAPSSKSTSGGTAALGCLVKDYFPEPVTVSWNSGALTSGVHTFPAVLQSSGLYSLSSVVTVPSSSLGTQTYICNVNHKPSNTKVDKKVEPKSCDKTHTCPPCPAPELLGGDSVFLFPPKPKDTLMISRTPEVTCVVIDVAEEDGEVKFNWYVDGVEVHNAKTKPREEQYNSTYRVVSVLTVLHQDWLNGKEYKCKVSNKALPAPIEKTISKAKGQPREPQVYTLPPSRDELTKNQVSLTCLVKGFYPSDIAVEWESNGQPENNYKTTPPVLDSDGSFFLYSKLTVDKSRWQQGNVFSCSVMHEALHNHYTQKSLSLSP light: not shown
